These results are taken from the supplement of paper PMC9170038.

In this data set the test system is MS2 coat protein. In words: apparent KD of MS2 coat protein; designed switch direction (-1 OFF switch, 1 ON switch): -1; higher = weaker reporter binding. The essentials: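 The apparent KD reported per design is the median over clusters of curve fits to normalised cluster fluorescence. The RNA switches were transcribed on Illumina chips by stalled E. coli RNA polymerase. SNAP-549-labelled MS2 coat protein was titrated from 0.7 or 1.5 nM, doubling up to 3 µM, in Tris-HCl pH 7.5 buffer containing KCl, MgCl2, BSA, DTT, tRNA and Tween-20, with no input, 200 uM small-molecule ligand, or an oligonucleotide input.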

Setting [1] is: Eterna round: R95, input ligand: microRNA oligo, concentration not stated.
[2] abbreviates: Eterna round: R95, input ligand: FMN 200 uM.
Where [3] appears, read: Eterna round: R95, input ligand: none.
Where [4] appears, read: input ligand: microRNA oligo, concentration not stated.

In the case of “CUCUUGUCAGGAUAUUAUGGACGAUAGCAGGACUACGUCAGUGAGAAGGGACAUGAGGAUCACCCAUGUAAAAU [Anqubi] (puzzle: Exclusion 4)”, the “apparent KD of MS2 coat protein” value under setting [1] is 72.6 nM.

Take “CUCUUGUGAGGAUAUCUCCCAGCGAUUAAUUGGGCAGUCUGAGAGAAGGUACAUGAGGAUCACCCAUGUGAUAG [Eternabot (L1) Solution 73] (Eterna round: R97, puzzle: Exclusion 4)”: the “apparent KD of MS2 coat protein” value runs as follows: (input ligand: FMN 200 uM) 69.3 nM; (input ligand: none) 61.7 nM.

As for “CUCUUGUUAGGAUAUCAAACCAGCGGCGGAACCGCUGGUAGUGAGAAGGGACAUGAGGAUCACCCAUGUAAGAA [Bige] (puzzle: Exclusion 4)”, the “apparent KD of MS2 coat protein” value came to 108 nM under setting [2], 51.1 nM under setting [1] and 61.3 nM under setting [3].

“CUGAGCUCAGGAUAUACAUGAGGAUCACCCAUGUGUUCCUGCGACGUUAGUUGCACAUGUAGAAGGGAGUUCGG [Less Extended Mod of JL - ex3-3.35 Brourd mod] (puzzle: Exclusion 3)”: under setting [1], the “apparent KD of MS2 coat protein” value was found to be 218 nM.

Consider “CUGAGUAGUCAGGAUAUGUGGUACAAAAGUACAGCAGAAGGGAUUACAUGAGGAUCACCCAUGUUUACUUCAUG [Omei Ex6 B16] (Eterna round: R97, puzzle: Exclusion 6)”, for which the “apparent KD of MS2 coat protein” value is, setting by setting: (input ligand: FMN 200 uM) 57.9 nM; (input ligand: none) 32.6 nM.

As for “CUGAUGGACUAGGAUAUCCUCAUCGAUCAGGGAGGAGAAGGAGUCACAUGAGGAUCACCCAUGUGAUGGUAAAA [Atqubi] (puzzle: Exclusion 6)”, the “apparent KD of MS2 coat protein” value runs as follows: under setting [2], 14.9 nM; under setting [1], 11.9 nM; under setting [3], 13.6 nM.

With “CUGAUGUUAGGAUAUCAGGCGCCCGCCACUGGCAGGGCGCAUGAGAAGGGACAUGAGGAUCACCCAUGUAGUAA [Anorbeus] (puzzle: Exclusion 4)”, the “apparent KD of MS2 coat protein” value under setting [1] turned out to be 26.3 nM.

Consider “CUGCUCCGUGUAGGAUAUCCGCGCAACCAAUGCGGAGAAGGACAUGAGGAUCACCCAUGUAUGUUAUUAUCACGUGAAGCGUCC [Design 26] (Eterna round: R96, puzzle: Exclusion NG 1)”, for which the “apparent KD of MS2 coat protein” value is 24.8 nM (input ligand: FMN 200 uM), 13.7 nM under setting [4] and 24.8 nM (input ligand: none).

For “CUGCUCCGUGUAGGAUAUGCAUGCAACCAAUAUGCAGAAGGACAUGAGGAUCACCCAUGUAUGUUAUUAUCACGUGAAGCGUCC [Design 22] (Eterna round: R96, puzzle: Exclusion NG 1)”, the “apparent KD of MS2 coat protein” value runs as follows: (input ligand: FMN 200 uM) 27.1 nM; under setting [4], 19.5 nM; (input ligand: none) 29.8 nM.

For “CUGCUGGAGCUUUGCUUUAGUCGUACAUGAGGAUCACCCAUGUAGGAUAUGGUAGGCUUUGCUUACUAGAAGGAUGGAGUGGUC [salish99_ExNG3_r04_607] (Eterna round: R96, puzzle: Exclusion NG 3)”, the “apparent KD of MS2 coat protein” value by setting is: (input ligand: FMN 200 uM) 166 nM; under setting [4], 38.1 nM; (input ligand: none) 50.2 nM.

Regarding “CUGCUGGAGCUUUGCUUUGGUCGUACAUGAGGAUCACCCAUGUAGGAUAUGGUAGGCUUUGCUUGCUAGAAGGAUAGAGUGGUC [salish99_ExNG3_r04_609] (Eterna round: R96, puzzle: Exclusion NG 3)”, the “apparent KD of MS2 coat protein” value (input ligand: FMN 200 uM) was found to be 197 nM, the “apparent KD of MS2 coat protein” value under setting [4] amounted to 77.5 nM and the “apparent KD of MS2 coat protein” value (input ligand: none) worked out at 88.8 nM.

Consider “CUGGUCCGAGGAUAUAUUAAGUGAAACAUGAGGAUCACCCAUGUAAUUUGAUGGAUGUAAAUAGAAGGCGGACUAG [JL-ex5-3.09] (puzzle: Exclusion 5)”, for which the “apparent KD of MS2 coat protein” value amounted to 29.4 nM under setting [2], 37.1 nM under setting [1] and 43.8 nM under setting [3].

As for “CUGGUCCGAGGAUAUAUUAAGUGAUACAUGAGGAUCACCCAUGUUAUUUAAUGGAUGUAAAUAGAAGGCGGACUAG [Mat - Exclusion 5 - JL mod - D70] (puzzle: Exclusion 5)”, the “apparent KD of MS2 coat protein” value by setting is: under setting [2], 51 nM; under setting [1], 42.6 nM; under setting [3], 44.6 nM.

Take “CUGGUCCGAGGAUAUAUUAAGUGAUACAUGAGGAUCACCCAUGUUAUUUGAUGGAUGUUAAUAGAAGGCGGACUAG [JL-ex5-3.18] (puzzle: Exclusion 5)”: the “apparent KD of MS2 coat protein” value under setting [2] came out at 78.3 nM, the “apparent KD of MS2 coat protein” value under setting [1] stood at 35.7 nM and the “apparent KD of MS2 coat protein” value under setting [3] was determined as 57.6 nM.

As to “CUGUACUGAGGAUAUACAUGAGGAUCACCCAUGUGUUCCAGCUAGGAAACUAGCAAAUGUAGAAGGCAGUACAG [Mat - Exclusion 3 - Eli Mod - D50] (Eterna round: R97, puzzle: Exclusion 3)”, the “apparent KD of MS2 coat protein” value was 307 nM (input ligand: FMN 200 uM) and 342 nM (input ligand: none).

As to “CUGUACUGAGGAUAUACAUGAGGAUCACCCAUGUGUUCCUGCUAGGAAACUAGCAAGGGUAGAAGGCAGUACAG [Mat - Exclusion 3 - Eli Mod - D46] (Eterna round: R97, puzzle: Exclusion 3)”, the “apparent KD of MS2 coat protein” value is, setting by setting: (input ligand: FMN 200 uM) 100 nM; (input ligand: none) 15.7 nM.

Turning to “CUGUUCCGUGUAGGAUAUGCAUAUUCCCAUUAUGCAGAAGGACAUGAGGAUCACCCAUGUAUGUUAUUAUCAUGUGUUACAUGC [Design 8] (Eterna round: R96, puzzle: Exclusion NG 1)”, the “apparent KD of MS2 coat protein” value turned out to be 635 nM (input ligand: FMN 200 uM), 31.3 nM under setting [4] and 36.4 nM (input ligand: none).

Consider “CUUAAAAGGUAGGAUAUGCUAGACGAAAGUCUAGCAGAAGGACCUACAUGAGGAUCACCCAUGUGUCCAAUAAG [Mat - Exclusion 6 - Eli Mod - D23] (Eterna round: R97, puzzle: Exclusion 6)”, for which the “apparent KD of MS2 coat protein” value runs as follows: (input ligand: FMN 200 uM) 50.6 nM; (input ligand: none) 86.3 nM.

On to “CUUAACUCAGGAUAUGCGGCGACAAACAUGAGGAUCACCCAUGUAAAUUGGUGAACCUGAGCAGAAGGGAGUACAA [EX5 B.2] (Eterna round: R97, puzzle: Exclusion 5)”, for which the “apparent KD of MS2 coat protein” value (input ligand: FMN 200 uM) was found to be 66.4 nM and the “apparent KD of MS2 coat protein” value (input ligand: none) worked out at 22.6 nM.

With “CUUAGACAUGAGGAUCACCCAUGUGAGGAUAUGAAAUUAAUUAAUUAUUAAGUAUGAAUCAGAAGGCACAUAUG [Mat - Mod of Hyphema D36] (puzzle: Exclusion 1)”, the “apparent KD of MS2 coat protein” value was determined as 79.9 nM under setting [2], 81.6 nM under setting [1] and 78.9 nM under setting [3].

On to “CUUAGACAUGAGGAUCACCCAUGUGAGGAUAUGAUGCGAUCGUGCUGACAUGAUCGCAUCAGAAGGCACAAAUG [Mat - Mod of JL D65] (puzzle: Exclusion 1)”, for which the “apparent KD of MS2 coat protein” value under setting [1] was 146 nM.

For the sequence “CUUAGCCUAAAAUCACGCAAGCUUCUUGCUUGUCUUAAGACAUGAGGAUCACCCAUGUCCGGGCUGAACUUAUGGAA [Enonzave] (puzzle: Sensor v3, turn-off variant 2)”, the “apparent KD of MS2 coat protein” value reads like this: under setting [2], 17.8 nM; under setting [1], 21.1 nM; under setting [3], 17.4 nM.

For the sequence “CUUCGUAUAGAGGAUAUAGGAUACCUCGGUGUCCUAGAAGGCUGUACAUGAGGAUCACCCAUGUACUUCAGAUC [Exclusion 6 - B - 14:d] (puzzle: Exclusion 6)”, the “apparent KD of MS2 coat protein” value under setting [1] came out at 12.6 nM.

With “CUUGUGUGAGGAUAUCAGUAGUAGUACGAUAGUAUUACUGCUGAGAAGGCACAUGAGGAUCACCCAUGUUCUUC [Exclusion 4 - Mod Omei Ex4 344 mod v.4] (puzzle: Exclusion 4)”, the “apparent KD of MS2 coat protein” value under setting [1] amounted to 23.6 nM.

Take “CUUGUGUGAGGAUAUGCGUAGGCAGUAAGUAAGUAGCCGGAGCAGAAGGCACAUGAGGAUCACCCAUGUGUUAC [EX4 B.1] (Eterna round: R97, puzzle: Exclusion 4)”: the “apparent KD of MS2 coat protein” value runs as follows: (input ligand: FMN 200 uM) 121 nM; (input ligand: none) 72.6 nM.

With “CUUGUUUAUGUAGGAUAUGCCUGGCGUGCCUUUGCAGAAGGACAUGAGGAUCACCCAUGUAUUGCGGUCUGCGUUCAGAUCGCA [salish99_ExNG1_r4_045] (Eterna round: R96, puzzle: Exclusion NG 1)”, the “apparent KD of MS2 coat protein” value runs as follows: (input ligand: FMN 200 uM) 34.6 nM; under setting [4], 23.2 nM; (input ligand: none) 34.5 nM.

Consider “CUUUAGUGAGGAUAUCAGUAGUAGAACAAUAGUACUACUACUGAGAAGGCACAUGAGGAUCACCCAUGUUCCUC [Fiskers Ex 4 Super stable 44 mod 8] (puzzle: Exclusion 4)”, for which the “apparent KD of MS2 coat protein” value under setting [1] worked out at 34.5 nM.

“CUUUUGUGAGGAUAUCAGGUGUGCUAGCGUACUGGUACAUCUGAGAAGGCACAUGAGGAUCACCCAUGUUCCUC [JL-ex4-3.17 Brourd mod] (puzzle: Exclusion 4)”: under setting [1], the “apparent KD of MS2 coat protein” value was found to be 39.1 nM.

With “CUUUUGUGAGGAUAUCAGUAGUAAAUAAAUAAAAUUAAUACUGAGAAGGCACAUGAGGAUCACCCAUGUUCCUC [Mat - Exclusion 4 - Mod of Salish - D63] (puzzle: Exclusion 4)”, under setting [1], the “apparent KD of MS2 coat protein” value was determined as 33 nM.

Regarding “CUUUUGUGAGGAUAUCAGUAGUAAAUUAAUAAAAUUACUACUGAGAAGGCACAUGAGGAUCACCCAUGUUCCUC [salish99_ex3_r3_078] (puzzle: Exclusion 4)”, the “apparent KD of MS2 coat protein” value under setting [1] is 41.9 nM.

In the case of “CUUUUGUGAGGAUAUCAGUAGUAAUAAUAUAAAAUUACUACUGAGAAGGCACAUGAGGAUCACCCAUGUUCCUC [salish99_ex3_r3_102] (puzzle: Exclusion 4)”, under setting [1], the “apparent KD of MS2 coat protein” value came out at 36.3 nM.

“CUUUUGUGAGGAUAUCAGUAGUUAAAAAAUAAAAUUACUACUGAGAAGGCACAUGAGGAUCACCCAUGUUCCUC [salish99_ex4_r3_016] (puzzle: Exclusion 4)”: the “apparent KD of MS2 coat protein” value under setting [1] stood at 40.5 nM.

On to “CUUUUGUGAGGAUAUUAGUAGUAAAAAAAUAAAAUUACUACUGAGAAGGCACAUGAGGAUCACCCAUGUUUCUC [salish99_ex4_r3_037] (puzzle: Exclusion 4)”, for which, under setting [1], the “apparent KD of MS2 coat protein” value amounted to 29.2 nM.
